Test results: patent US12600782 (BIOTHEUS, dated 2026)
Positions count from the first letter of the chain named. Like-named read-outs stand apart in the source and are kept apart here. Each block holds one molecule with its values, some of them ahead of it.

T1: human PD-L2 on CHO cells (CHO-hPD-L2 cells) (human, UniProt Q9BQ51 20-273)
T1 construct: whole, on cells; also called CHO-K1-PD-L1/PD-L2
T1 sequence (looked up): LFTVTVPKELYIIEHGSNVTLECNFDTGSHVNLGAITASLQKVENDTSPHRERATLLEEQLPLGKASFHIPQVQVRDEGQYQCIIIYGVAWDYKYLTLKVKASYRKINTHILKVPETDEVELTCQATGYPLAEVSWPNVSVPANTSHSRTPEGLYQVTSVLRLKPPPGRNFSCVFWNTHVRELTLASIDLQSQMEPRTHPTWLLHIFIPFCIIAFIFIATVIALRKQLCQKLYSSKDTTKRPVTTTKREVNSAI

B1: D-Na-96 (antibody, V domains shown)
VH: QVQLVESGGGLVQAGASLRLSCAASGRTFSSMTIGWFRQTPGKEREFVAGIGWTSGLTVYADSVKGRFTISRDNAEKTMYLHMNNLKPEDTSVYYCAADSMNRGQFDYWGQGTQVTVSS
notes: Anti-PD-L2 heavy chain antibody: VHH linked to human IgG1 (LALA) Fc; the junction is not described
B2: HZ-D-Na-96-1 (antibody, V domains shown)
VH: EVQLVESGGGLVQPGGSLRLSCAASGRTFSSMTIGWFRQAPGKGLEFVSGIGWTSGLTVYADSVKGRFTISRDNAKNSMYLQMNSLRAEDTAVYYCAADSMNRGQFDYWGQGTLVTVSS
notes: Humanized anti-PD-L2 heavy chain antibody: VHH linked to human IgG1 (LALA) Fc; the junction is not described
B3: human PD-L2 protein (purchased from AcroBiosystems) (ligand, UniProt Q9BQ51 20-219, looked up)
chain: LFTVTVPKELYIIEHGSNVTLECNFDTGSHVNLGAITASLQKVENDTSPHRERATLLEEQLPLGKASFHIPQVQVRDEGQYQCIIIYGVAWDYKYLTLKVKASYRKINTHILKVPETDEVELTCQATGYPLAEVSWPNVSVPANTSHSRTPEGLYQVTSVLRLKPPPGRNFSCVFWNTHVRELTLASIDLQSQMEPRTHP
modifications: biotinylated in the blocking assays
notes: Bought soluble protein; also called PD-L2 antigen; biotinylated human PD-L2 protein
B4: K-Yr-13&14-02 (antibody, V domains shown)
VH: QVQLVESGGGLVKAGDSLRLSCAASGHTFIIYAIGWFRQAPGKEREFVATINWSGSMTNYTDSVKGRFTISRDNAKNTVYLQMNSLKPDDTAIYYCAAYVGATISTAHSRYDYWGQGTQVTVSS
notes: Anti-PD-L1 heavy chain antibody: VHH linked to human IgG1 (LALA) Fc; the junction is not described
B5: Bi-203-204 (bispecific antibody, human IgG1, kappa, L234A L235A, V domains shown)
V domain 1: B4 VH with A14P, D16G, E44G, R45L, T61A, I93V, Q119L
V domain 2: B2 VH
notes: Formula III + IV format
B6: HZ-K-Yr-13&14-02-3 (antibody, V domains shown)
VH: B4 VH with A14P, D16G, E44G, R45L, T61A, I93V, Q119L
notes: Humanized anti-PD-L1 heavy chain antibody: VHH linked to human IgG1 (LALA) Fc; the junction is not described; also called HZ-K-13&14-02-3

Key:
[1] = target: human PD-L1 protein (purchased from AcroBiosystems) (human) (UniProt Q9NZQ7); test: BLI (ForteBio), antibody on AHQ sensor, 100 nM PD-L1 antigen, 1:1 model
[2] = target: human PD-L1 on CHO cells (CHO-hPD-L1 cells) (human) (UniProt Q9NZQ7); test: flow cytometry on CHO-hPD-L1 cells, PE anti-human IgG-Fc, MFI; table under the plot, unit from the concentration axis
[3] = target: human PD-L1 protein (purchased from AcroBiosystems) (human) (UniProt Q9NZQ7); test: flow cytometry blocking assay: antibody pre-incubated with biotinylated human PD-L1 protein (1 ug/ml), binding of PD-L1 to CHO-hPD-1 cells read as MFI; falling curve, the table under the plot calls the half-maximal concentration EC50; unit from the concentration axis
[4] = target: human PD-L1 protein (purchased from AcroBiosystems) (human) (UniProt Q9NZQ7); test: BLI (ForteBio), antibody on AHQ sensor, 100 nM PD-L1 antigen, 1:1 model; remark: listed apart in the source
[5] = target: T1, human PD-L2 on CHO cells (CHO-hPD-L2 …); test: flow cytometry on CHO-hPD-L2 cells, PE anti-human IgG-Fc, median fluorescence intensity (MFI)
Description: (§1) The expanded CHO-hPD-L2 cells were adjusted to a cell density of 2×10⁶ cells/ml, and were added to 96-well flow plate at 100 μl/well, and centrifuged for later use. […] The diluted samples were added to the 96-well flow plate with cells at 100 μl/well, incubated at 4° C. for 30 min, and washed twice with PBS. Goat F(ab')2 anti-human IgG-Fc (PE) (purchased from Abcam) diluted 100 times with PBS was added at 100 μl/well, incubated at 4° C. for 30 min, and washed twice with PBS. PBS was added at 100 μl/well to resuspend cells, and detection was performed on a CytoFlex (Bechman) flow cytometer and the corresponding MFI was calculated.

[6] = target: T1, human PD-L2 on CHO cells (CHO-hPD-L2 …); test: as above; remark: listed apart in the source
Description: as §1

[7] = target: B3; test: BLI (ForteBio), antibody on AHQ sensor, 100 nM PD-L2 antigen, 1:1 model
Description: (§2) ForteBio affinity determination was carried out according to existing methods (Estep, P et al., High throughput solution-based measurement of antibody-antigen affinity and epitope binning. MAbs, 2013.5(2): p. 270-8). In short, the sensor was equilibrated for 30 min under the line of the analysis buffer, and then the baseline was established after online detection for 60 s. The purified antibody obtained as described above was loaded onto the AhQ sensor online. […] Kinetic analysis was performed using a 1:1 binding model.

[8] = target: B3; test: flow cytometry blocking assay: antibody pre-incubated with biotinylated human PD-L2 protein (1 ug/ml), binding of PD-L2 to CHO-hPD-1 cells read as MFI (APC)
Description: (§3) CHO cells overexpressing human PD-1 (CHO-hPD-1 cells) were generated by transfection of the pCHO1.0 vector (purchased from Invitrogen™) cloning human PD-1 cDNA (purchased from Sino Biological). The expanded CHO-hPD-1 cells were adjusted to a cell density of 2×10⁶ cells/ml, and were added to 96-well flow plate at 100 μl/well, and centrifuged for later use. The purified mutant sample was diluted with PBS and diluted 3 times from […] for 12 points. […] The co-incubation sample was added to the above-mentioned 96-well flow plate with cells 100 μl/well, incubated at 4° C. for 30 min, and washed twice with PBS. APC goat anti-mouse IgG (minimum×reactive) antibody diluted 100 times with PBS (purchased from Biolegend®) was added at 100 μl/well, incubated at 4° C. for 30 min, and washed twice with PBS. PBS was added at 100 μl/well to resuspend cells, and detection was performed on a CytoFlex (Bechman) flow cytometer and the corresponding MFI was calculated.

[9] = target: B3; test: flow cytometry blocking assay: antibody pre-incubated with biotinylated human PD-L2 protein (1 ug/ml), binding of PD-L2 to CHO-hPD-1 cells read as MFI
Description: as §3

[10] = target: B3; test: BLI (ForteBio), antibody on AHQ sensor, 100 nM PD-L2 antigen, 1:1 model; remark: listed apart in the source
Description: as §2
(§4) The experimental method was the same as that in Example 1.5.

[11] = target: T1, human PD-L2 on CHO cells (CHO-hPD-L2 …); test: flow cytometry on CHO-hPD-L2 cells, PE anti-human IgG-Fc, MFI; table under the plot, unit from the concentration axis
[12] = target: B3; test: flow cytometry blocking assay: antibody pre-incubated with biotinylated human PD-L2 protein (1 ug/ml), binding of PD-L2 to CHO-hPD-1 cells read as MFI (APC); falling curve, the table under the plot calls the half-maximal concentration EC50; unit from the concentration axis
Description: (§5) The expanded CHO-hPD-1 cells were adjusted to a cell density of 2 ×10^6 cells/ml, and were added to 96-well flow plate at 100 μl/well, and centrifuged for later use. The purified mutant sample was diluted with PBS and diluted 3 times from […] for 12 points.
(§6) 28 purified sample at 4° C. for 30 min. The co-incubation sample was added to the above-mentioned 96-well flow plate with cells at 100 μl/well, incubated at 4° C. for 30 min, and washed twice with PBS. APC goat anti-mouse IgG (minimum×reactivity) antibody diluted 100 times with PBS (purchased from Biolegend®) was added at 100 μl/well, incubated at 4° C. for 30 min, and washed twice with PBS. PBS was added at 100 μl/well to resuspend cells, and detection was performed on a CytoFlex (Bechman) flow cytometer and the corresponding MFI was calculated.

[13] = target: T2, human PD-1 on CHO cells (CHO-hPD-1 cells) (human, UniProt Q15116 25-288); test: flow cytometry: biotinylated human PD-L2 protein (1 ug/ml) on CHO-hPD-1 cells, no antibody
T2 construct: whole, on cells
Description: as §3

[14] = target: T3, human PD-L1 protein (purchased from AcroBiosystems) (human, UniProt Q9NZQ7 19-238, biotinylated in the blocking assay); test: BLI (ForteBio), antibody on AHQ sensor, 100 nM PD-L1 antigen, 1:1 model
T3 construct: Bought soluble protein; also called PD-L1 antigen; biotinylated human PD-L1 protein
Description: as §2

[15] = target: T4, human PD-L1 on CHO cells (CHO-hPD-L1 cells) (human, UniProt Q9NZQ7 19-290); test: flow cytometry on CHO-hPD-L1 cells, PE anti-human IgG-Fc, median fluorescence intensity (MFI)
T4 construct: whole, on cells; also called CHO-K1-PD-L1/PD-L2

[16] = target: T3, human PD-L1 protein (purchased from …); test: flow cytometry blocking assay: antibody pre-incubated with biotinylated human PD-L1 protein (1 ug/ml), binding of PD-L1 to CHO-hPD-1 cells read as MFI; falling curve, the table under the plot calls the half-maximal concentration EC50; unit from the concentration axis
Description: as §5, §6

[17] = target: T4, human PD-L1 on CHO cells (CHO-hPD-L1 …); test: flow cytometry on CHO-hPD-L1 cells, PE anti-human IgG-Fc, MFI; table under the plot, unit from the concentration axis
[18] = target: T3, human PD-L1 protein (purchased from …); test: BLI (ForteBio), antibody on AHQ sensor, 100 nM PD-L1 antigen, 1:1 model; remark: listed apart in the source
Description: as §2, §4

Sequence of human PD-L1 protein (purchased from AcroBiosystems) (human) (Q9NZQ7 19-238 limits assumed): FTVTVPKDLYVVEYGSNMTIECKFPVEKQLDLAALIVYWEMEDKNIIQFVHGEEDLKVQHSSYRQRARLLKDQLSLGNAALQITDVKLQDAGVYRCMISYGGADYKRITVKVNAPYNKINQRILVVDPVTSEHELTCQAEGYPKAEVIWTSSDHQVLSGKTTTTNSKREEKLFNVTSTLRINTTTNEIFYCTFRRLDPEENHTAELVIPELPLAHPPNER
T3 sequence (Q9NZQ7 19-238 limits assumed): as above
T4 sequence (Q9NZQ7 19-290): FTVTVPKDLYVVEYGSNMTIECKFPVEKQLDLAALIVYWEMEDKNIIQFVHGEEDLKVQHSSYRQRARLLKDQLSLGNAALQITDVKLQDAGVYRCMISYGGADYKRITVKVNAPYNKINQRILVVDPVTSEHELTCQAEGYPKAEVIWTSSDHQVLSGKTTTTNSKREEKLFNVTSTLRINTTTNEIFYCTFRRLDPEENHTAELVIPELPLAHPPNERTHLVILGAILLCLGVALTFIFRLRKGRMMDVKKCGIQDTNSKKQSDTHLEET
T2 sequence (Q15116 25-288): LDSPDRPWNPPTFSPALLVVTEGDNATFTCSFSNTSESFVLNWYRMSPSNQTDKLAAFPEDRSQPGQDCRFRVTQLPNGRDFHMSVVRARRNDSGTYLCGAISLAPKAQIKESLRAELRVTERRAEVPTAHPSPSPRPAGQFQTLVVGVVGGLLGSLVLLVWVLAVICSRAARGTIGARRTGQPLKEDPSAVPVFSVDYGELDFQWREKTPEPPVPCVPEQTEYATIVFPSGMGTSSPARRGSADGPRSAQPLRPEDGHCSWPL
Sequence of human PD-L1 on CHO cells (CHO-hPD-L1 cells) (human) (Q9NZQ7 19-290): as the sequence (Q9NZQ7 19-290) above

Kd [1]: 1.3 nM | EC50 [2]: 4.53 nM | EC50 [3]: 6.31 nM | Kd [4]: 1.16 nM
Molecule: control antibody ATE

Molecule: B1
EC50 (read off the curve) [5]: ~50 nM | EC50 (read off the curve) [6]: ~6 nM | Kd [7]: 1.27 nM | koff [7]: 0.0011 s⁻¹ | kon [7]: 862000 M⁻¹ s⁻¹ | IC50 (read off the curve) [8]: ~2 nM | IC50 (read off the curve) [9]: ~9 nM | Kd [10]: 2.5 nM | koff [10]: 0.000655 s⁻¹ | kon [10]: 262000 M⁻¹ s⁻¹

Molecule: B2
EC50 [11]: 1.75 nM | EC50 (read off the curve) [6]: ~4 nM | Kd [7]: 1.11 nM | koff [7]: 0.0004 s⁻¹ | kon [7]: 360000 M⁻¹ s⁻¹ | EC50 [12]: 13.4 nM | IC50 (read off the curve) [8]: ~2 nM | Kd [10]: 1.68 nM | koff [10]: 0.000577 s⁻¹ | kon [10]: 344000 M⁻¹ s⁻¹

Molecule: B3
binding result [13]: binds

Molecule: B4
Kd [14]: 0.96 nM | koff [14]: 0.000561 s⁻¹ | kon [14]: 585000 M⁻¹ s⁻¹ | EC50 (read off the curve) [15]: ~8 nM

Molecule: B5
Kd [14]: 1.59 nM | koff [14]: 0.000405 s⁻¹ | kon [14]: 254000 M⁻¹ s⁻¹ | EC50 [11]: 1.25 nM | Kd [7]: 1.14 nM | koff [7]: 0.000424 s⁻¹ | kon [7]: 372000 M⁻¹ s⁻¹ | EC50 [16]: 12.3 nM | EC50 [12]: 8.35 nM | EC50 [17]: 3.74 nM

Molecule: B6
Kd [14]: 1.38 nM | koff [14]: 0.000309 s⁻¹ | kon [14]: 224000 M⁻¹ s⁻¹ | EC50 (read off the curve) [15]: ~10 nM | EC50 [16]: 5.17 nM | EC50 [17]: 2.55 nM | Kd [18]: 0.223 nM | koff [18]: 9.92e-05 s⁻¹ | kon [18]: 445000 M⁻¹ s⁻¹
